Data from patent publication US20250388633A1.

Biological target: growth factor receptors
Test: cell-based or functional assay

Binder | p-Smad1/5/8 (%) (quantification of western blots of phospho-smad1/5/8)
SIPKASSTPTELSPINMLYF [SEQ ID NO: 54] | 32%
NDEGLESVPTEESAISMLYL [SEQ ID NO: 56] | 28%
SSVKSQPSRVHHSPISILFI [SEQ ID NO: 57] | 41%
ASASPSSVSQDLSSLSILFF [SEQ ID NO: 58] | 37%
VVPKPSSAPTQLEPISILYL [SEQ ID NO: 59] | 29%
SSVKSQPSRVHHKPLSMLYV [SEQ ID NO: 62] | 31%
NDEGLESVPTEERSVKVAKV [SEQ ID NO: 63] | 34%
